Measurements published in patent US20240117385A1, “ENZYMES OF LUCIFERIN BIOSYNTHESIS AND USE THEREOF” (LIGHT BIO, INC., priority 2018, published 2024).

B1: SEQ ID NO: 137: plant type III polyketide synthase (PKS) (protein, listed as Piper methysticum)
chain: MSKTVEDRAAQRAKGPATVLAIGTATPANVVYQTDYPDYYFRVTKSEHMTKLKNKFQRMCDRSTIKKRYMVLTEELLEKNLSLCTYMEPSLDARQDILVPEVPKLGKEAADEAIAEWGRPKSEITHLIFCTTCGVDMPGADYQLTKLLGLRSSVRRTMLYQQGCFGGGTVLRLAKDLAENNAGARVLVVCSEITTAVNFRGPSDTHLDLLVGLALFGDGAAAVIVGADPDPTLERPLFQIVSGAQTILPDSEGAINGHLREVGLTIRLLKDVPGLVSMNIEKCLMEAFAPMGIHDWNSIFWIAHPGGPTILDQVEAKLGLKEEKLKSTRAVLREYGNMSSACVLFILDEVRKRSMEEGKTTTGEGFDWGVLFGFGPGFTVETVVLHSMPIPKADEGR
B2: SEQ ID NO: 139: plant type III polyketide synthase (PKS) (protein, listed as Piper methysticum)
chain: MSKMVEEHWAAQRARGPATVLAIGTANPPNVLYQADYPDFYFRVTKSEHMTQLKEKFKRICDKSAIRKRHLHLTEELLEKNPNICAHMAPSLDARQDIAVVEVPKLAKEAATKAIKEWGRPKSDITHLIFCTTCGVDMPGADYQLTTLLGLRPTVRRTMLYQQGCFAGGTVLRHAKDFAENNRGARVLAVCSEFTVMNFSGPSEAHLDSMVGMALFGDGASAVIVGADPDFAIERPLFQLVSTTQTIVPDSDGAIKCHLKEVGLTLHLVKNVPDLISNNMDKILEEAFAPLGIRDWNSIFWTAHPGGAAILDQLEAKLGLNKEKLKTTRTVLREYGNMSSACVCFVLDEMRRSSLEEGKTTSGEGLEWGILLGFGPGLTVETVVLRSVPISTAN
B3: SEQ ID NO: 119: type III polyketide synthase PKS1 from Aquilaria sinensis (protein, listed as Aquilaria sinensis)
chain: MGSQDVAGGALKGVNPGKATILALGKAFPYQLVMQEFLVDGYFKNTSCKDQELKQKLARLCKTTTVKTRYVVMSEEILNKYPELAVEGIPTLKQRLDIGNEALTEMAIEASQACIKKWGRPASEITHLVYVSSSEARLPGGDLYLAQGLGLSPRTKRVVLYFMGCSGGVAGLRVAKDIAENNPGSRVLLATSETTIVGFKPPSAHRPYDLVGVALFGDGAGAMVIGSDPLPGTESPLFELHTAIQNFLPNTEKTIDGRLTEEGISFKLARELPQIVEDHIEGFCGQLTGVIGLSHKQYNKMFWAVHPGGPAILNRVEKRLDLHPNKLDASRRALEDYGNASSNSIVYVLDYMIEETLKMKTESLEPSEWGLILAFGPGVTFEGILARNLAV
B4: SEQ ID NO: 121: type III polyketide synthase PKS2 from Aquilaria sinensis (protein, listed as Aquilaria sinensis)
chain: MSQAIADNAYRHHLKRAPTPGKATVLALGKAFPKQVIPQENLVEGYIRDTKCEDVSIKEKLERLCKTTTVKTRYTVMSKEILDNYPELVTEGSPTIRQRLEIANPAVVEMAKEASLACIKQWGRPAGDITHIVYVSSSEIRLPGGDLYLANELGLKNDINRIMLYFLGCYGGVTGLRVAKDIAENNPGSRILLTTSETTILGFRPPNKSRPYDLVGAALFGDGAAAVIIGANPEIGRESPFMELNFALQQFLPGTHGVIDGRLSEEGINFKLGRDLPQKIEDNIEDFCRKLMIKADGDLKEFNELFWAVHPGGPAILNRLESILDLKNGKLECSRRALMDYGNVSSNTIFYVMEYMREELKREGSEEWGLALAFGPGITFEGILLRSL
B5: SEQ ID NO: 123: type III polyketide synthase from Arabidopsis thaliana (protein, listed as Arabidopsis thaliana)
chain: MSNSRMNGVEKLSSKSTRRVANAGKATLLALGKAFPSQVVPQENLVEGFLRDTKCDDAFIKEKLEHLCKTTTVKTRYTVLTREILAKYPELTTEGSPTIKQRLEIANEAVVEMALEASLGCIKEWGRPVEDITHIVYVSSSEIRLPGGDLYLSAKLGLRNDVNRVMLYFLGCYGGVTGLRVAKDIAENNPGSRVLLTTSETTILGFRPPNKARPYDLVGAALFGDGAAAVIIGADPRECEAPFMELHYAVQQFLPGTQNVIEGRLTEEGINFKLGRDLPQKIEENIEEFCKKLMGKAGDESMEFNDMFWAVHPGGPAILNRLETKLKLEKEKLESSRRALVDYGNVSSNTILYVMEYMRDELKKKGDAAQEWGLGLAFGPGITFEGLLIRSLTSS
B6: SEQ ID NO: 125: type III polyketide synthase from Hydrangea macrophylla (protein, listed as Hydrangea macrophylla)
chain: MATKSVAVEEMCKAQKAGGPATILAIGTAVPSNCYYQSEYPDFYFRVTKSDHLTDLKSKFKRMCERSSIKKRYMHLTEEILEENPNMCTFAAPSIDGRQDIVVKEIPKLAKEAASKAIKEWGQPKSNITHLVFCTTSGVDMPGCDYQLTRLLGLRPSIKRLMMYQQGCHAGGTGLRLAKDLAENNKGARVLVVCSEMTVINFRGPSEAHMDSLVGQSLFGDGASAVIVGSDPDLSTEHPLYQIMSASQIIVADSEGAIDGHLRQEGLTFHLRKDVPSLVSDNIENTLVEAFTPILMDSIDSIIDWNSIFWIAHPGGPAILNQVQAKVGLKEEKLRVSRHILSEYGNMSSACVFFIMDEMRKRSMEEGKGTTGEGLEWGVLFGFGPGFTVETIVLHSVPI
B7: SEQ ID NO: 127: plant type III polyketide synthase (PKS) (protein, listed as Physcomitrella patens)
chain: B1 chain
B8: SEQ ID NO: 129: plant type III polyketide synthase (PKS) (protein, listed as Polygonum cuspidatum)
chain: MAPAVADIRKAQRAEGPATVLAIGTATPPNCVYQKDYPDYYFRVTNSDHMTDLKEKFRRMCEKSNIEKRYMYLTEEILKENPNMCSYMQTSSLDTRQDMVVSEVPRLGKEAAQKAIKEWGQPKSKITHVIMCTTSGVDMPGADYQLTKLLGLHPSVKRFMMYQQGCFAGGTVLRLAKDLAENNRGARVLVVCSEITAICFRGPTDTHPDSMVGQALFGDGSGAVIIGADPDLSIEKPIFELVWTAQTILPDSEGAIDGHLREVGLTFHLLKDVPGLISKNIEKNLTEAFSPLNVSDWNSLFWIAHPGGPAILDQVETKLGLKEEKLKATRQVLNDYGNMSSACVLFIMDEMRKKSVENGHATTGEGLEWGVLFGFGPGLTVETVVLHSVPVAN
B9: SEQ ID NO: 131: plant type III polyketide synthase (PKS) (protein)
chain: MATEEMKKLATVMAIGTANPPNCYYQADFPDFYFRVTNSDHLINLKQKFKRLCENSRIEKRYLHVTEEILKENPNIAAYEATSLNVRHKMQVKGVAELGKEAALKAIKEWGQPKSKITHLIVCCSAGVDMPGADYQLTKLLDLDPSVKRFMFYHLGCYAGGTVLRLAKDIAENNKGARVLIVCSEMTTTCFRGPSETHLDSMIGQAILGDGAAAVIVGADPDLTVERPIFELVSTAQTIVPESHGAIEGHLLESGLSFHLYKTVPTLISNNIKTCLSDAFTPLNISDWNSLFWIAHPGGPAILDQVTAKVGLEKEKLKVTRQVLKDYGNMSSATVFFIMDEMRKKSLENGQATTGEGLEWGVLFGFGPGITVETVVLRSVPVIS
modifications: Amino acid sequence of the mutant L132S PKS from Rheum palmatum, optimized for expression in Nicotiana benthamiana
B10: SEQ ID NO: 133: plant type III polyketide synthase (PKS) (protein, listed as Rheum tataricum)
chain: MAPEESRHAETAVNRAATVLAIGTANPPNCYYQADFPDFYFRATNSDHLTHLKQKFKRICEKSMIEKRYLHLTEEILKENPNIASFEAPSLDVRHNIQVKEVVLLGKEAALKAINEWGQPKSKITRLIVCCIAGVDMPGADYQLTKLLGLQLSVKRFMFYHLGCYAGGTVLRLAKDIAENNKEARVLIVRSEMTPICFRGPSETHIDSMVGQAIFGDGAAAVIVGANPDLSIERPIFELISTSQTIIPESDGAIEGHLLEVGLSFQLYQTVPSLISNCIETCLSKAFTPLNISDWNSLFWIAHPGGRAILDDIEATVGLKKEKLKATRQVLNDYGNMSSACVFFIMDEMRKKSLANGQVTTGEGLKWGVLFGFGPGVTVETVVLSSVPLIT

System: Pichia pastoris GS115 yeast cells expressing luciferase, hispidin hydroxylase and coumarate-CoA ligase 1
Assay: Screening of PKS for hispidin-synthase activity in yeast colonies sprayed with caffeic acid
Type: cell-based
Conditions: colonies sprayed with caffeic acid solution
Description: The selected nucleotide sequences for expression in Pichia pastoris yeast cells and Nicotiana benthamiana plant cells were optimized. The resulting nucleic acids were obtained synthetically and cloned into pGAPZ vector and used for verifying ability of the expressed proteins to synthesize hispidin.
For this purpose, in genome of Pichia pastoris GS115 yeast line, constitutively expressing Neonothopanus nambi luciferase and hispidin hydroxylase, obtained according to Example 1, there was additionally introduced pGAPZ plasmid, comprising gene of
Arabidopsis thaliana coumarate-CoA ligase 1 (which nucleotide and amino acid sequence are shown in SEQ ID NOs: 140, 141), also obtained by oligonucleotide synthesis. The plasmid was linearized at restriction site AvrII and used for transformation into Pichia pastoris GS115 cells.
The obtained yeast cells, constitutively expressing Neonothopanus nambi luciferase and hispidin hydroxylase and Arabidopsis thaliana coumarate-CoA ligase 1, were […] by plasmids comprising coding PKS sequences, and dispersed in Petri dishes with RDB medium, comprising 1 M of sorbitol, 2% (weight/volume) of glucose, 1.34% (weight/volume) of yeast nitrogen base (YNB), 0.005% (weight/volume) of amino acids mixture, 0.00004% (weight/volume) of biotin and 2% (weight/volume) of agar. To identify enzymes having hispidin-synthase activity, the obtained colonies were sprayed with caffeic acid solution, detecting hispidin-synthase presence in cells by occurrence of luminescence. Luminescence emitted by colonies was detected by means of IVIS Spectrum CT (Perkin Elmer, USA). Yeast line constitutively expressing luciferase, hispidin hydroxylase and coumarate-CoA ligase 1, and also wild yeast cells were used as negative control. […] Amino acid sequences coded by then are shown in SEQ ID NOs: 119, 121, 123, 125, 127, 129, 131, 133, 135, 137, 139 respectively.

Row | Molecule | hispidin-synthase activity | hispidin-synthase activity, comparison among PKS
1 | B1 | had hispidin-synthase activity | –
2 | B2 | had hispidin-synthase activity | –
3 | B3 | had hispidin-synthase activity | highest activity
4 | B4 | had hispidin-synthase activity | highest activity
5 | B5 | had hispidin-synthase activity | highest activity
6 | B6 | had hispidin-synthase activity | highest activity
7 | B7 | had hispidin-synthase activity | –
8 | B8 | had hispidin-synthase activity | –
9 | B9 | had hispidin-synthase activity | –
10 | B10 | had hispidin-synthase activity | –
